Tests used:
[1] = target: CD2 ligand on sheep erythrocytes (T11TS, the sheep homologue of LFA-3) (sheep (endogenous in sheep erythrocytes))
[2] = target: LFA-3 surface glycoprotein on the human B-lymphoblastoid line JY (human (endogenous in JY)) (UniProt P19256); assay: flow cytometry on cells
Sequence of UniProt P19256 (P19256 29-250): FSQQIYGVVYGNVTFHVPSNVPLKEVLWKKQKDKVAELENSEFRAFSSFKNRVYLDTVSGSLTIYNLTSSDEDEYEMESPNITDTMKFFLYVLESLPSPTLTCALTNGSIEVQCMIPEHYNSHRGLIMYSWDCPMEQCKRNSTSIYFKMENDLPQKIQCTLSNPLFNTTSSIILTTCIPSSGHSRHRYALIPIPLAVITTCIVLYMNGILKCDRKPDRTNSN

T11ex2, recombinant soluble CD2 (T11) molecule that corresponds to the two extracellular segment exons (domain or fragment)
half-maximal inhibition of sheep erythrocyte-Jurkat T cell rosettes [1]: 0.63 to 1.25 µM
percent reduction of specific anti-LFA-3 reactivity at 10 uM T11ex2 [2]: 85%
